Substitutions are numbered along the chain they refer to.
B1: P234CR9_A7 (designed binder)
chain: LPAPKNLVVSRVTEDSARLSWGEQFTIFDSFLIQYQESEKVGEAIVLTVPGSERSYDLTGLKPGTEYTVSIYGASGYEWFHAFGSSNPLSAIFTT
notes: also called P234CR9_A07; not shown: C-terminal poly-histidine tag
B2: P258AR6P1070_A05 (designed binder)
chain: LPAPKNLVVSRVTEDSARLSWTIDEQRDWFDSFLIQYQESEKVGEAIVLTVPGSERSYDLTGLKPGTEYTVSIYGVYHVYRSNPLSAIFTT
notes: not shown: C-terminal poly-histidine tag
B3: P258AR6P1070_F09 (designed binder)
chain: B2 chain with D31E
notes: as for B2
B4: P258AR6P1071_D02 (designed binder)
chain: B2 chain with T22A, D31E
notes: as for B2
B5: P258AR6P1071_G03 (designed binder)
chain: B2 chain with T22D
notes: as for B2
B6: P258AR6P1071_F04 (designed binder)
chain: B2 chain with T22V
notes: as for B2
B7: P233FR9P1001_B5-5 (designed binder)
chain: LPAPKNLVVSRVTEDSARLSWTAPDAAFDSFTIGYWEWDDDGEAIVLTVPGSERSYDLTGLKPGTEYPVYIAGVKGGQWSFPLSAIFTT
notes: as for B2
B8: P233FR9P1001_H3-1 (designed binder)
chain: B7 chain with T32P, P68H
notes: as for B2
B9: P233FR9P1001_D9 (designed binder)
chain: B7 chain with T32P, P68W
notes: as for B2
B10: P234CR9_H01 (designed binder)
chain: LPAPKNLVVSRVTEDSARLSWEWWVIPGDFDSFLIQYQESEKVGEAIVLTVPGSERSYDLTGLKPGTEYTVSIYGVVNSGQWNDTSNPLSAIFTT
notes: as for B2
B11: P229CR5P819_H11 (designed binder)
chain: LPAPKNLVVSRVTEDSARLSWDIDEQRDWFDSFLIQYQESEKVGEAIVLTVPGSERSYDLTGLKPGTEYTVSIYGVYHVYRSSNPLSAIFTT
notes: In the cytotoxicity assays it was conjugated to vc-MMAF (cysteine-maleimide chemistry or sortase reaction); also called P229CR9P819-H11; not shown: C-terminal poly-histidine tag

How the values were obtained:
[1] = biological target: T1, human PSMA on tumor cells (LNCaP, MDA-PCA-2B, VCAP, 22Rv1) (human, UniProt Q04609 1-750); experiment: cell-based or functional assay
T1 sequence (Q04609 whole entry, the tested form may be a part): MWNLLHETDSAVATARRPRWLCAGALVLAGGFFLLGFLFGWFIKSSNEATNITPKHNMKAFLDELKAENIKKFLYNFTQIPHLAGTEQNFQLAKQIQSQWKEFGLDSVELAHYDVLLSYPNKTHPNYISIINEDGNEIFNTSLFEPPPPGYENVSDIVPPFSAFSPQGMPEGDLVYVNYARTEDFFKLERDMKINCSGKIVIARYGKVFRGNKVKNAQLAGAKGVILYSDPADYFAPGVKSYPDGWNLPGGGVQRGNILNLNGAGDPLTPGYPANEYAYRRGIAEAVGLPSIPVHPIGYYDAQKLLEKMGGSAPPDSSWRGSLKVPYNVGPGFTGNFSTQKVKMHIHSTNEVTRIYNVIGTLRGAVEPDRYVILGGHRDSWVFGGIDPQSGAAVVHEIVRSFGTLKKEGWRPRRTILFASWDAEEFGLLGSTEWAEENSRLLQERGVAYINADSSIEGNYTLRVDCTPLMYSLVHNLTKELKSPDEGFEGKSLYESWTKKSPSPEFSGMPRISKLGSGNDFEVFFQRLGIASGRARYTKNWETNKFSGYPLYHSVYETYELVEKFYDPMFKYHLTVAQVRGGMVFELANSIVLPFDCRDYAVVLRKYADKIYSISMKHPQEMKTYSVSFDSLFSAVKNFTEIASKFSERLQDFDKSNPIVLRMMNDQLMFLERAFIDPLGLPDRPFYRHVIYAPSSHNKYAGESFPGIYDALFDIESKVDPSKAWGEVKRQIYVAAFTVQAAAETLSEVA

[2] = biological target: T2, cynomolgus PSMA extracellular domain (PSMW1), 6His and Avi tag (cynomolgus, UniProt Q04609 44-750 (human entry), biotinylated in bead-based selections and the ELISA screen); experiment: hit from CIS-display panning and ELISA screen on PSMA of this species (column Antigen species)
T2 construct: Cloned along with a 6His and Avi tag; also called cynomolgus monkey PSMA; pan 230
T2 chain: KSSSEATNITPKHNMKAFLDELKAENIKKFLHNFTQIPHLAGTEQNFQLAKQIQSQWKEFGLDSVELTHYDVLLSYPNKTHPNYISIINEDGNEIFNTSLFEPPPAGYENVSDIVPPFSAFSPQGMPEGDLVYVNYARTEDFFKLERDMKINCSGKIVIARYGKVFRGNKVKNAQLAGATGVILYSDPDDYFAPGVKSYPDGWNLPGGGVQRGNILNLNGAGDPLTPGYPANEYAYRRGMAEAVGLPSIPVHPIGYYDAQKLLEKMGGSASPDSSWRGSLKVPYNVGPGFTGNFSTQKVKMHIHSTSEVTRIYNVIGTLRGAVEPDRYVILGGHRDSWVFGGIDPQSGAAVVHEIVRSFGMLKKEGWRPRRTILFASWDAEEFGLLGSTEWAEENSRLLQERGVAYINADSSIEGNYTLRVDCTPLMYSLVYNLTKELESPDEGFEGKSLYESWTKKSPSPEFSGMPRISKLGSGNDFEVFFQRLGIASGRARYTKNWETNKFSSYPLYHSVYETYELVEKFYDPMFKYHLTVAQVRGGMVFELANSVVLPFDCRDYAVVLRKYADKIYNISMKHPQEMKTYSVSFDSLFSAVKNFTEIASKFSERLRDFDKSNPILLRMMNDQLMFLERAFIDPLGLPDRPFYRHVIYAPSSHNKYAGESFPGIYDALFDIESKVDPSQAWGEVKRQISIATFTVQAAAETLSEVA

[3] = biological target: T3, chimpanzee PSMA extracellular domain (PSMW8), 6His and Avi tag (chimpanzee, UniProt Q04609 44-750 (human entry), biotinylated in bead-based selections and the ELISA screen); experiment: as above
T3 construct: Cloned along with a 6His and Avi tag; Buffer with ZnCl2 to stabilise PSMA dimerisation; also called pan 229
T3 chain: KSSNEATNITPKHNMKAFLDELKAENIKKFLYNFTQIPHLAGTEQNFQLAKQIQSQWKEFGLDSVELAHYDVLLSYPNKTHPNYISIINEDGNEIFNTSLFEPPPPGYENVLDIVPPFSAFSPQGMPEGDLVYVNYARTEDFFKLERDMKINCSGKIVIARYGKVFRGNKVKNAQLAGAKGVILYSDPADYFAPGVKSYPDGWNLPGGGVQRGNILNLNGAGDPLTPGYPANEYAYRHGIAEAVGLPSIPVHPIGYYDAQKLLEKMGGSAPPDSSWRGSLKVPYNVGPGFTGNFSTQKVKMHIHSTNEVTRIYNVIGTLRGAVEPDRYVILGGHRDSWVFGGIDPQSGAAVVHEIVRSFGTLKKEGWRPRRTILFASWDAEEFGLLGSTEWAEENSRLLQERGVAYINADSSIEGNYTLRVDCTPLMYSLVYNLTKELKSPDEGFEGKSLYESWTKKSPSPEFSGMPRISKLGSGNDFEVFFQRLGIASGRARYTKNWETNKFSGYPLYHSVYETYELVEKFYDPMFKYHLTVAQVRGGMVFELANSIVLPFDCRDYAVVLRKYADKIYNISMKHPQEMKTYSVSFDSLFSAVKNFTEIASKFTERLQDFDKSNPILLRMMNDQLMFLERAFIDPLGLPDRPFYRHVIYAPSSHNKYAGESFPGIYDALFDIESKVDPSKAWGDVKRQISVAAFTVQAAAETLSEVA

[4] = biological target: T1, human PSMA on tumor cells (LNCaP, …); experiment: cell-based or functional assay; remark: listed apart in the source

Row | Binder | LNCaP IC50 (nM), cytotoxicity of the FN3 domain-vcMMAF conjugate (CellTiter-Glo) [1] [nM] | binding result [2] | binding result [3] | LNCaP cells IC50 (nM), cytotoxicity of FN3 domain-drug conjugate [4] [nM] | MDA-PCA-2B cells IC50 (nM), cytotoxicity of FN3 domain-drug conjugate [4] [nM] | VCAP cells IC50 (nM), cytotoxicity of FN3 domain-drug conjugate [4] [nM]
1 | B1 | 8.8 | binds | – | – | – | –
2 | B2 | 4.6 | binds | – | – | – | –
3 | B3 | 0.9 | binds | – | – | – | –
4 | B4 | 0.8 | binds | – | – | – | –
5 | B5 | 5.8 | binds | – | – | – | –
6 | B6 | 5.4 | binds | – | – | – | –
7 | B7 | 0.5 | – | binds | – | – | –
8 | B8 | 0.4 | – | binds | 0.4 | 4.6 | 15.2
9 | B9 | 1.4 | – | binds | – | – | –
10 | B10 | 22.6 | binds | – | 22.6 | 151 | 401
11 | B11 | 20.7 | – | binds | 9.3 | 107 | 231

From US20160347840A1 (Janssen / Centocor, published 2016)
